The values that follow come from patent EP4803540A1 (FNCTBiotech Inc., dated 2026).

This test deals with T1, human CSF3 protein (human, UniProt P09919 31-207).
T1 construct: also called G-CSF; human colony-stimulating factor 3
T1 sequence: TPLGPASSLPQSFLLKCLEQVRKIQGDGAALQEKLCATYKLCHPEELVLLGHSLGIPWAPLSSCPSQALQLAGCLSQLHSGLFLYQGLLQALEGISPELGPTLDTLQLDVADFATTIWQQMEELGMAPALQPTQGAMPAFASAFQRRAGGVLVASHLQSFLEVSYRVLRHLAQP
Description: high-mass MALDI MS of a mixture of Y41 antibody and human CSF3 protein; complexes of one or two CSF3 with one Y41.

B1: C41 (or Y41) (antibody, human IgG1, kappa, V domains shown)
VH: EMQLVQSGAEARKPGSSVKVSCKASGYTFTNYGISWLRQTPGQGLEWMGWINPNSGGTIYAQKFQGRVTMTRDTPITTAYMELSTLRSEDTAVYYCSRGSGGAVPFDVWGQGTMVTVSS
VL: DIQMTQSPFSLSASVGDRVTITCRASQTISNRLNWYQHKPGKAPKLFIYYASSLQSGVPSRFSGSGSGTDFALTISSLQPEDFATYYCQQGYSSPRTFGQGTKVEIKR
notes: Human IgG1; the CDR numbers printed for Y41 disagree between places; also called 007A06; CSA1241
In the case of B1, the binding result is reported as “binds”.
